According to US20250313611A1 (VIB VZW, published 2025):
Read-outs that look alike come from different tables or passages of the source.

How the values were obtained:
[1] = target: T1, SARS-COV-2 RBD (His-tagged, Sinobiologicals) (SARS-CoV-2 (Wuhan), UniProt P0DTC2 319-541); test: ELISA, periplasmic extract 1/10, OD450 antigen/OD450 BSA
[2] = target: T1, SARS-COV-2 RBD (His-tagged, …); test: as above; remark: listed apart in the source
[3] = target: T2, recombinant HKU1 spike protein (HCoV-HKU1, UniProt Q5MQD0 13-1276); test: ELISA, periplasmic extract 1/10, heat map of binding (%)
T2 sequence: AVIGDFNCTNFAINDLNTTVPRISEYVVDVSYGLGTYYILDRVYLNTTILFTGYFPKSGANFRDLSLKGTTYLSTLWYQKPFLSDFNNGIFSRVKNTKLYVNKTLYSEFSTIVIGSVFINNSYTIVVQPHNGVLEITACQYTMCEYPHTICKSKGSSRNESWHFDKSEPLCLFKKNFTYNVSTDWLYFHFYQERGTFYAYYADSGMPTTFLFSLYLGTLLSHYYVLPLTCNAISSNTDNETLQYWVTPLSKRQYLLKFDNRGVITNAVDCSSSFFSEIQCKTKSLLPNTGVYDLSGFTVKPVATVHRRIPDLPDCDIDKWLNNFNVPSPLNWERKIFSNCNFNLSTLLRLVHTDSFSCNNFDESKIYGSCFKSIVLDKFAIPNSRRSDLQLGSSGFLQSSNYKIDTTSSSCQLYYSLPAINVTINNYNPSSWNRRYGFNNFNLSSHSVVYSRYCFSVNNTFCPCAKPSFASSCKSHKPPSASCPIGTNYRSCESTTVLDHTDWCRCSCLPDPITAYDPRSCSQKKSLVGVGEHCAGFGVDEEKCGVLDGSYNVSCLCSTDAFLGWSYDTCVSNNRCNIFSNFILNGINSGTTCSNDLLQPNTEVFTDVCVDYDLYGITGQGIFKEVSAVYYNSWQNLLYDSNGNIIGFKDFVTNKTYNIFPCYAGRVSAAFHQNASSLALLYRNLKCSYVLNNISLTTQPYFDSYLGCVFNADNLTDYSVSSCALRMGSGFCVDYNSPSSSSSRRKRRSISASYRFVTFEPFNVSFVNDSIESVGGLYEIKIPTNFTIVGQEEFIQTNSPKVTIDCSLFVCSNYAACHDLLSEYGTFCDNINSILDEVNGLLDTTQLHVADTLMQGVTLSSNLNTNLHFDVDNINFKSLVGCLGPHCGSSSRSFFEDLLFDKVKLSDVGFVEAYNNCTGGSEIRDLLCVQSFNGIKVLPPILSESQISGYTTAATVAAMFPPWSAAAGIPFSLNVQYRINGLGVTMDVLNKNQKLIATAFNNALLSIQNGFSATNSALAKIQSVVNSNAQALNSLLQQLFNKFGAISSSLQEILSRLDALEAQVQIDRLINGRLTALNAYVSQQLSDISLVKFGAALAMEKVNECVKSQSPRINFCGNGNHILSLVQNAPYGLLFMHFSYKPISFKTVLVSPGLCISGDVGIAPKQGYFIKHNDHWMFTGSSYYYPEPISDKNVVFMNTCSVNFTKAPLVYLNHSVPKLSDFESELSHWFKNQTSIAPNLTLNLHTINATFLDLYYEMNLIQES

[4] = target: T3, recombinant MERS-COV spike protein (MERS-CoV, UniProt K9N5Q8 18-1291); test: as above
T3 sequence: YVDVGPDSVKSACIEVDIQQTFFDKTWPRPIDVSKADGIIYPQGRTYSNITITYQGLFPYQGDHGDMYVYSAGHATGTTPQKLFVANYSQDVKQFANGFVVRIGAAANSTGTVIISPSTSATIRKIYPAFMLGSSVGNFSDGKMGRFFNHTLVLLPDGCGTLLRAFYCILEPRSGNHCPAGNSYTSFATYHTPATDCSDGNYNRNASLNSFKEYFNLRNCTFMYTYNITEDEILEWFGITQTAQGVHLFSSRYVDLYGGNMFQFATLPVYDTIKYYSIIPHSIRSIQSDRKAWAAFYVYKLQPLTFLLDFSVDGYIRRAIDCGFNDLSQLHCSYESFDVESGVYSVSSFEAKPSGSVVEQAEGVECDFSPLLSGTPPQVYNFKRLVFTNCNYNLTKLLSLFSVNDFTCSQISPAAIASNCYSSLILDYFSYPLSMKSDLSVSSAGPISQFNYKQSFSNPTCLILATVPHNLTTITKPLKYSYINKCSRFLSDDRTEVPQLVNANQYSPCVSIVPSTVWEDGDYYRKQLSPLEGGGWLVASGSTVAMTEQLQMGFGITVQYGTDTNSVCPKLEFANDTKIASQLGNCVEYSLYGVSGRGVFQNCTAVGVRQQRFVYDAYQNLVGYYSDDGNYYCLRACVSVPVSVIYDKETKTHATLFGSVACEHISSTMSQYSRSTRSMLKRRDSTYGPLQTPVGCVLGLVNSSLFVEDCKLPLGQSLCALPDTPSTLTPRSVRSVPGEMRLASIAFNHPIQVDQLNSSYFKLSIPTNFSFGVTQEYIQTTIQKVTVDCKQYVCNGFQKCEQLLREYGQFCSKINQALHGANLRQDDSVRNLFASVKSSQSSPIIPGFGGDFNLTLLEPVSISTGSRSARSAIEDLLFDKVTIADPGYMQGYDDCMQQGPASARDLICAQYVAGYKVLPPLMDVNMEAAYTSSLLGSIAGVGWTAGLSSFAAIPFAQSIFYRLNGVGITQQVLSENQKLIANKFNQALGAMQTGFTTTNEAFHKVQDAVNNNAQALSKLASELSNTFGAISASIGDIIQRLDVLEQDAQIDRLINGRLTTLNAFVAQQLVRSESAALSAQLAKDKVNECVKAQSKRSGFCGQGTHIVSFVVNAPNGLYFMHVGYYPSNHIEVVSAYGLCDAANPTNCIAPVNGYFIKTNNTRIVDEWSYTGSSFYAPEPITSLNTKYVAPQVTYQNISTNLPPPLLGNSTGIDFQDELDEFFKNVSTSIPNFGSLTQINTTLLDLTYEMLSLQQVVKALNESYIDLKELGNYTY

Binder	binding result [1]	binding result [2]	binding result [3]	binding result [4]
3.83 (VHH) VHH: QVQLQESGGGLVQPGDSLRLSCVLSGGVFTSYAMGWFRQAPGKEREFLAAITFNSDATYYADSVKGRFTISRDNAKNTAYLQMNSLKPNDTAVYSCAAGGNHYNPQYYHDYDKYDHWGQGTQVTVSS	binds			
VHH R3_DC5 (VHH) VHH: QVQLQESGGGLVQAGDSLRLSCAASGRIFSTYTMGWFRQAPGMEREFVAAIRWSGSTVYYADSVKGRFTISRDNAKNTVYLQMNSLKPEDTAVYYCAAARVSKANYGTLWYRATGLYDYWGQGTQVTVSS		no binding (tested: extract 1/10, concentration not given)	no binding (tested: extract 1/10, concentration not given)	no binding (tested: extract 1/10, concentration not given)
VHH R3_DC19 (VHH) VHH: QVQLQESGGGLVQPGDSLRLSCAVSGRPFSTYTMGWFRQAPGKEREFVAAMRWSGGTIYYADSVKGRFTISRDNDKNTVNLEMNSLKPEDTAVYYCAAAYVSKANYGSLWYRASGLYDYWGQGTQVTVSS		no binding (tested: extract 1/10, concentration not given)	no binding (tested: extract 1/10, concentration not given)	no binding (tested: extract 1/10, concentration not given)
VHH R3_DC21 (VHH) VHH: QVQLQESGGGLVQAGDSLRLSCAVSGRPFSTYTMGWFRQAPGKEREFVAAMRWSGGTIYYADSVRGRFTISRDNDKNTVNLEMNSLKPEDTAVYYCAAAYVSKANYGSLWYRASGLYDYWGQGTQVTVSS		no binding (tested: extract 1/10, concentration not given)	no binding (tested: extract 1/10, concentration not given)	no binding (tested: extract 1/10, concentration not given)
